The values below come from patent US20200166530A1 (CASE WESTERN RESERVE UNIVERSITY, published 2020).

Ends that are not written are not given here.

The test has as its target T1, hERα^CDE, multidomain segment of human estrogen receptor alpha containing both DBD and LBD (residues … (human, UniProt P03372 181-552)).
T1 construct: Expressed in E. coli from the pMCSG7 vector; It functions as a homodimer; In the SPR assay it was injected as the complex with ERE-DNA and estradiol; also called hERα^CDE-DNA-E2 complex
T1 sequence: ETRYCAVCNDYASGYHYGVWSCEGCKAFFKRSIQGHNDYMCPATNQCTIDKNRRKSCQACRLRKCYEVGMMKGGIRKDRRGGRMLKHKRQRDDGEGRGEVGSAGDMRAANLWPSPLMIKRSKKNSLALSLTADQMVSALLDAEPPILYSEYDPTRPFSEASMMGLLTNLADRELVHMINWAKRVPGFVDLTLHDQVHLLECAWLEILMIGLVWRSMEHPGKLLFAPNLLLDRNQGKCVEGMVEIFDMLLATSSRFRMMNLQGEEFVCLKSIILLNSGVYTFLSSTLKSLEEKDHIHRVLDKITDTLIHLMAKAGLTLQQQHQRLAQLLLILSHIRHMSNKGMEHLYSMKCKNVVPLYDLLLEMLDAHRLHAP
Briefly: SPR (Biacore T100): biotinylated TIF2 peptide immobilised on an SA chip, hERα^CDE-DNA-E2 complex injected at 0-5 µM, 25° C [panel e]. Here is the method:
Measurements were conducted at 25° C. using a Biacore T100 system.

B1: coactivator TIF2 peptide (KENALLRYLLDKDD) (peptide)
peptide: KENALLRYLLDKDD
modifications: also: biotinylated (position not given here)
notes: For SPR the peptide was biotinylated and captured on an SA sensor chip at 10 RUs; also called biotinylated TIF2 peptide
For the molecule B1, the binding result is “binds”.
